Tested on: Escherichia coli TOP10
Experiment: shrunken log2 fold change of peptide-encoding DNA abundance (4.5 h post-induction vs induction); higher = less antimicrobial activity (less host growth inhibition)
Conditions: time post-induction: 4.5 h; library: site-saturation at positions 5, 18, 19, 20
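Further: peptides expressed intracellularly from a pBAD plasmid library in pooled LB shake-flask culture, induced with 0.3% L-arabinose, DNA abundance read by NGS, three biological replicates, DESeq2 with apeglm shrinkage.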

| Sequence | shrunken log2 fold change |
| --- | --- |
| RRIRIRPPRLPRPRPRPCERPRP | -0.0509 |
| RRIRIRPPRLPRPRPRPCFLPRP | -0.544 |
| RRIRIRPPRLPRPRPRPCFRPRP | -0.233 |
| RRIRIRPPRLPRPRPRPCGMPRP | 0.0729 |
| RRIRIRPPRLPRPRPRPCGNPRP | 0.00902 |
| RRIRIRPPRLPRPRPRPCGQPRP | -0.279 |
| RRIRIRPPRLPRPRPRPCHGPRP | -0.545 |
| RRIRIRPPRLPRPRPRPCIQPRP | -0.185 |
| RRIRIRPPRLPRPRPRPCKEPRP | 1.82 |
| RRIRIRPPRLPRPRPRPCKSPRP | -0.133 |
| RRIRIRPPRLPRPRPRPCMNPRP | -0.307 |
| RRIRIRPPRLPRPRPRPCNQPRP | -0.297 |
| RRIRIRPPRLPRPRPRPCNWPRP | -0.135 |
| RRIRIRPPRLPRPRPRPCRDPRP | -0.132 |
| RRIRIRPPRLPRPRPRPCVCPRP | -0.0463 |
| RRIRIRPPRLPRPRPRPCWGPRP | 0.162 |
| RRIRIRPPRLPRPRPRPCWNPRP | -0.301 |
| RRIRIRPPRLPRPRPRPCYDPRP | -0.014 |
| RRIRIRPPRLPRPRPRPDAWPRP | 0.32 |
| RRIRIRPPRLPRPRPRPDCPPRP | 0.132 |
| RRIRIRPPRLPRPRPRPDDIPRP | -0.151 |
| RRIRIRPPRLPRPRPRPDDVPRP | -0.00433 |
| RRIRIRPPRLPRPRPRPDDYPRP | 0.07 |
| RRIRIRPPRLPRPRPRPDERPRP | -0.0172 |
| RRIRIRPPRLPRPRPRPDFFPRP | -0.415 |

| Sequence | shrunken log2 fold change |
| --- | --- |
| RRIRIRPPRLPRPRPRPDFYPRP | -0.554 |
| RRIRIRPPRLPRPRPRPDGHPRP | -0.153 |
| RRIRIRPPRLPRPRPRPDGLPRP | 0.0731 |
| RRIRIRPPRLPRPRPRPDGTPRP | -0.303 |
| RRIRIRPPRLPRPRPRPDHFPRP | -0.0602 |
| RRIRIRPPRLPRPRPRPDHPPRP | -0.266 |
| RRIRIRPPRLPRPRPRPDIDPRP | -0.151 |
| RRIRIRPPRLPRPRPRPDILPRP | -0.354 |
| RRIRIRPPRLPRPRPRPDKNPRP | -0.673 |
| RRIRIRPPRLPRPRPRPDKVPRP | -0.043 |
| RRIRIRPPRLPRPRPRPDKYPRP | -0.189 |
| RRIRIRPPRLPRPRPRPDLEPRP | -0.0323 |
| RRIRIRPPRLPRPRPRPDLPPRP | -0.334 |
| RRIRIRPPRLPRPRPRPDMPPRP | -0.109 |
| RRIRIRPPRLPRPRPRPDNSPRP | -1.35 |
| RRIRIRPPRLPRPRPRPDPFPRP | 0.261 |
| RRIRIRPPRLPRPRPRPDPLPRP | -0.326 |
| RRIRIRPPRLPRPRPRPDQFPRP | -0.321 |
| RRIRIRPPRLPRPRPRPDQVPRP | -0.117 |
| RRIRIRPPRLPRPRPRPDRCPRP | -0.163 |
| RRIRIRPPRLPRPRPRPDREPRP | 0.00825 |
| RRIRIRPPRLPRPRPRPDRNPRP | -0.913 |
| RRIRIRPPRLPRPRPRPDSEPRP | 0.0636 |
| RRIRIRPPRLPRPRPRPDVAPRP | -0.206 |
| RRIRIRPPRLPRPRPRPDVMPRP | -0.17 |

| Sequence | shrunken log2 fold change |
| --- | --- |
| RRIRIRPPRLPRPRPRPDWCPRP | -0.149 |
| RRIRIRPPRLPRPRPRPDWGPRP | -0.0242 |
| RRIRIRPPRLPRPRPRPDWIPRP | -1.16 |
| RRIRIRPPRLPRPRPRPDYCPRP | -0.163 |
| RRIRIRPPRLPRPRPRPECEPRP | -0.0311 |
| RRIRIRPPRLPRPRPRPECQPRP | -0.00158 |
| RRIRIRPPRLPRPRPRPEDIPRP | -0.407 |
| RRIRIRPPRLPRPRPRPEDQPRP | -0.000348 |
| RRIRIRPPRLPRPRPRPEDRPRP | -0.0106 |
| RRIRIRPPRLPRPRPRPEEAPRP | 0.215 |
| RRIRIRPPRLPRPRPRPEECPRP | 0.0287 |
| RRIRIRPPRLPRPRPRPEEYPRP | -0.0228 |
| RRIRIRPPRLPRPRPRPEFAPRP | 0.452 |
| RRIRIRPPRLPRPRPRPEGHPRP | -0.00139 |
| RRIRIRPPRLPRPRPRPEGTPRP | 0.0536 |
| RRIRIRPPRLPRPRPRPEITPRP | -0.461 |
| RRIRIRPPRLPRPRPRPELTPRP | -0.0457 |
| RRIRIRPPRLPRPRPRPENSPRP | 0.0169 |
| RRIRIRPPRLPRPRPRPEPFPRP | 0.126 |
| RRIRIRPPRLPRPRPRPEQAPRP | 0.1 |
| RRIRIRPPRLPRPRPRPEQEPRP | 0.0276 |
| RRIRIRPPRLPRPRPRPEQWPRP | -0.0237 |
| RRIRIRPPRLPRPRPRPERAPRP | 0.761 |
| RRIRIRPPRLPRPRPRPERQPRP | 0.0212 |
| RRIRIRPPRLPRPRPRPERRPRP | 0.264 |

— the supplement of paper PMC9112550, “Optimization of the antimicrobial peptide Bac7 by deep mutational scanning” (BMC Biology, 2022)
